Laboratory results taken from PMC8193015.
Like-named read-outs stand apart in the source and are kept apart here. Ends that are not written are not given here.

B1: HCRT1–13 peptide, nonbiotinylated (peptide)
peptide: MNLPSTKVSWAAV
modifications: not fully specified

Experiments:
[1] = molecular target: soluble DR4 (sDR4) recombinant protein (human); experiment: ELISA
[2] = molecular target: “empty” DQ6 (DQA1*01:02/DQB1*06:02) with leucine zippers displayed on yeast as a noncovalent αβ heterodimer (human); experiment: flow cytometry on cells
[3] = molecular target: soluble DQ6 (sDQ6) recombinant protein, CLIP87–101 linker cleaved by thrombin (human); experiment: ELISA
[4] = molecular target: soluble DQ6 (sDQ6) recombinant protein, CLIP87–101 linker cleaved by thrombin (human); experiment: ELISA; remark: listed apart in the source
[5] = molecular target: “empty” DQ6 (DQA1*01:02/DQB1*06:02) with leucine zippers displayed on yeast as a noncovalent αβ heterodimer (human); experiment: flow cytometry on cells; remark: listed apart in the source

| Molecule | %Competition [2] | also measured |
| --- | --- | --- |
| HA306–318 peptide, nonbiotinylated |  | %Competition at [competitor]:[indicator] = 10 [1]: 75% |
| HCRT1–15 peptide (from UniProt O43612 1-15) | > 50% |  |
| HCRT21–35 peptide (from UniProt O43612 21-35) | > 50% |  |
| HCRT25–39 peptide (from UniProt O43612 25-39) | > 50% |  |
| HCRT53–67 peptide (from UniProt O43612 53-67) | > 50% |  |
| HCRT57–71 peptide (from UniProt O43612 57-71) | > 50% |  |
| HCRT81–95 peptide (from UniProt O43612 81-95) | > 50% |  |
| HCRT85–99 peptide (from UniProt O43612 85-99) | > 50% |  |
| HCRT89–103 peptide (from UniProt O43612 89-103) | > 75% | %Competition at [competitor]:[indicator] = 10 [2]: > 75%; %Competition at [competitor]:[indicator] = 100 [3]: > 75% |
| SARS-CoV-2 spike peptide S652–668 (from UniProt P0DTC2 652-668) |  | %Competition at [competitor]:[indicator] = 100 [1]: < 50% |
| SARS-CoV-2 spike peptide S1058–1074 (from UniProt P0DTC2 1058-1074) |  | fold weaker BA than HA306–318 (IC50 normalised to HA306–318) [1]: 20 fold |
| B1 |  | %Competition at [competitor]:[indicator] = 10 [4]: 75%; %Competition at [competitor]:[indicator] = 10 [5]: 75%; IC50 [5]: 30 µM |
